Test results as given in publication PMC7226213 (Cancer Science, 2020).
One block for each binder: values may come before it.

Key:
[1] = biological target: T1, fibroblast growth factor 19 (FGF19), full-length (human, UniProt O95750, biotin (where co-transfected with BirA biotin-protein ligase)); test: SPR
[2] = biological target: T1, fibroblast growth factor 19 (FGF19), …; test: ELISA

T1 sequence (O95750 25-216): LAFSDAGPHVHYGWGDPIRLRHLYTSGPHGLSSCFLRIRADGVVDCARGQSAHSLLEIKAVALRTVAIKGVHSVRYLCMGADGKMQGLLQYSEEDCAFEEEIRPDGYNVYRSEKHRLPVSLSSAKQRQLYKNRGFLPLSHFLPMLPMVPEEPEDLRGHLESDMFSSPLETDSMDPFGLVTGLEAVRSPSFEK

- binding result [1]: binds
B1: 31A3, human IgG1 Ab (antibody, V domains shown)
VH: not shown
VL: QAGLTQPASVSGSPGQSITISCTGTSSDVGGYNYVSWYQQHPGKAPKLMIYDVSNRPSGVSDRFSGSKSGNTASLTISGLQTEDEADYYCSSYTRSSTLVFGGGTQLTVL

- fold increase of affinity over 31A3 [1]: 27 fold
- fold slower dissociation rate than 31A3 [1]: 60 fold
B2: G1A8, human IgG1 Ab (antibody, V domains shown)
VH: not shown
VL: QAGLTQPASVSGSPGQSITISCTGTSSDVGGYNYVSWYQQHPGKAPKLMIYDVSNRPSGVSDRFSGSKSGNTASLTISGLQTEDEADYYCSSWTRSSGLVFGGGTQLTVL

- IC50 [2]: 1.39 nM
B3: G1A8-Fab (Fab, V domains shown)
VH: not shown
VL: QAGLTQPASVSGSPGQSITISCTGTSSDVGGYNYVSWYQQHPGKAPKLMIYDVSNRPSGVSDRFSGSKSGNTASLTISGLQTEDEADYYCSSWTRSSGLVFGGGTQLTVL
